Positions count from the first letter of the chain named. Names and notes keep the numbering of the source.

Experiment in all cases: SPR (Biacore);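 also: antibody variants captured on sensor chip, Fcγ receptor flowed over at 25 °C, bound receptor normalized to amount of captured antibody, expressed relative to reference antibody set as 100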
A general note: In SPR one partner is held on a chip, and binding of the other changes the refractive index at the surface.

Experiment [1] deals with T1, human FcγRIa (human, UniProt P12314 16-292, limits assumed).
T1 construct: also called FcgRIa; FcγRI (CD64)
T1 sequence (P12314 16-292 limits assumed): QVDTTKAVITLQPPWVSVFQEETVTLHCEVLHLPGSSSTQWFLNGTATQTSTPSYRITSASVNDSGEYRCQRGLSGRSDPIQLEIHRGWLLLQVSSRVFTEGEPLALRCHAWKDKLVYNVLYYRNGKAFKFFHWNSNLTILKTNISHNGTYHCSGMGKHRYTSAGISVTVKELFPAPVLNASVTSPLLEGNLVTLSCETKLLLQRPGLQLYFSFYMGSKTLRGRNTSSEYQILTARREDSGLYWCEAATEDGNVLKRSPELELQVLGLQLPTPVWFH
Method: (§1) Interaction between each modified antibody and Fcγ receptor prepared in the manner described above was analyzed using the BIACORE™ T100 surface plasmon resonance system (GE Healthcare), BIACORE™ T200 surface plasmon resonance system (GE Healthcare), BIACORE™ A100 surface plasmon resonance system or BIACORE™ 4000 surface plasmon resonance system. HBS-EP+ (GE Healthcare) was used for the running buffer, and measurements were carried out at 25° C. The chips used were chips in which antigen peptides, Protein A (Thermo Scientific), Protein A/G (Thermo Scientific) or Protein L (ACTIGEN® protein (Alltech or BioVision) were immobilized on the Series S Sensor Chip CMS (GE Healthcare) or Series S Sensor Chip CM4 (GE Healthcare) by amine coupling, or chips in which preliminarily biotinylated antigen peptides were allowed to interact and then immobilized on the Series S Sensor Chip SA (certified) (GE Healthcare). The target antibodies were captured on these sensor chips, Fcγ receptor diluted with the running buffer was allowed to interact, followed by measurement of the amount of bound antibody. The amounts bound were compared between antibodies. However, since the amount of Fcγ receptor bound depends on the amount of captured antibody, the values used for comparison were first corrected by dividing the amount of Fcγ receptor bound by the captured amount of each antibody. Through reaction with 10 mM glycine-HCl at pH 1.5, the sensor chips were regenerated by washing off antibody captured on the sensor chips and used repeatedly.
(§2) Binding strength was evaluated according to the following method based on the results of analyzing the interaction with each FcγR. […] That value was then further multiplied by 100, and the resulting value was used as an indicator of relative binding activity to each FcγR.

Experiment [2] addresses T2, human FcγRIIa(R) (human, UniProt P12318 36-217).
T2 construct: also called FcgRIIaR; FcγRIIa type R
T2 chain: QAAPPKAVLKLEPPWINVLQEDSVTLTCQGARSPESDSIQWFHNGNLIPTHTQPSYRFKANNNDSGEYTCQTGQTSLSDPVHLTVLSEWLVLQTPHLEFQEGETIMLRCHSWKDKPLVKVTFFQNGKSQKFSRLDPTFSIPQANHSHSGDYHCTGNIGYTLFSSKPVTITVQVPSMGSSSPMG
Method: as §1, §2

Experiment [3] deals with T3, human FcγRIIa(H) (human, UniProt P12318 36-217).
T3 construct: also called FcgRIIaH; FcγRIIa type H
T3 sequence: T2 chain with R133H
Method: as §1, §2

Experiment [4] deals with T4, human FcγRIIb (human, UniProt P31994 43-217, limits assumed).
T4 construct: also called FcgRIIb
T4 sequence: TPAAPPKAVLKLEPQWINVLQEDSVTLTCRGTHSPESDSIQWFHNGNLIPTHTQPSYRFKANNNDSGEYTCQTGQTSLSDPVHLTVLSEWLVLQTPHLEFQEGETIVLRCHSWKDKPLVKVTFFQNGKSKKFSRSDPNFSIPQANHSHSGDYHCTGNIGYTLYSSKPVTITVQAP
Method: as §1, §2

The target in experiment [5] is T5, human FcγRIIIa(F) (human, UniProt P08637 17-208, limits assumed).
T5 construct: also called FcgRIIIaF; allotype F158
T5 sequence (P08637 other isoform, or with tags, fused parts or gaps limits assumed): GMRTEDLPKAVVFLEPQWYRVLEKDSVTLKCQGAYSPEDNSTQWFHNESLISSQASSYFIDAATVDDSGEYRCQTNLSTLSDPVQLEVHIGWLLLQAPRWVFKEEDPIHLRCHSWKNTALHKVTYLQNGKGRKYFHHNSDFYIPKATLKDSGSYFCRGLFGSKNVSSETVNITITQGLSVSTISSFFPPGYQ
Method: as §1, §2

B1: GpH7-B3 variant E269K/GpL16-k0 (antibody, human IgG1)
heavy: not shown
light: DIVMTQSPLSLPVTPGEPASISCQASESLVHSNRNTYLHWYLQKPGQSPQLLIYKVSNRFSGVPDRFSGSGSGTDFTLKISRVEAEDVGVYYCSQNTHVPPTFGQGTKVEIE
notes: copies: 2 + 2
As to B1, the relative binding activity in experiment [1] was 71 % of GpH7-B3/GpL16-k0; in experiment [2], 4 % of GpH7-B3/GpL16-k0; in experiment [3] it was 22 % of GpH7-B3/GpL16-k0; in experiment [4] it was 1 % of GpH7-B3/GpL16-k0; in experiment [5] it was 11 % of GpH7-B3/GpL16-k0.

B2: GpH7-B3 variant D265A/GpL16-k0 (antibody, human IgG1)
heavy: not shown
light: B1 light
notes: copies: 2 + 2
Take B2: the relative binding activity in experiment [1] is 36 % of GpH7-B3/GpL16-k0; in experiment [2] it was 3 % of GpH7-B3/GpL16-k0; in experiment [3], 5 % of GpH7-B3/GpL16-k0; in experiment [4], 1 % of GpH7-B3/GpL16-k0; in experiment [5], -1 % of GpH7-B3/GpL16-k0.

B3: GpH7-B3 variant D265K/GpL16-k0 (antibody, human IgG1)
heavy: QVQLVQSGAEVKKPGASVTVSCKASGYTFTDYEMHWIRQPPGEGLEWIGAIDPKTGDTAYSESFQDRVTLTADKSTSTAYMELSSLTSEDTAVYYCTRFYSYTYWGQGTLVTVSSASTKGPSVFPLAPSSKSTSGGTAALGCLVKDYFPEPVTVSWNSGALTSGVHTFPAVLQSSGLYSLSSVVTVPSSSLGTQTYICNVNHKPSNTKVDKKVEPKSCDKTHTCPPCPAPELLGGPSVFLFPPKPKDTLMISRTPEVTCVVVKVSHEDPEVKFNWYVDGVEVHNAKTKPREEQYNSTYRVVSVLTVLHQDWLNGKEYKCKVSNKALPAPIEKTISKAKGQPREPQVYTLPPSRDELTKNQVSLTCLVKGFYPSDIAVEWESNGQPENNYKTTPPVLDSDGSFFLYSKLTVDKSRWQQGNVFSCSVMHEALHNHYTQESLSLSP
light: B1 light
notes: copies: 2 + 2
Consider B3, for which the relative binding activity in experiment [1] was 8 % of GpH7-B3/GpL16-k0; in experiment [2], -1 % of GpH7-B3/GpL16-k0; in experiment [3], 0 % of GpH7-B3/GpL16-k0; in experiment [4], 0 % of GpH7-B3/GpL16-k0; in experiment [5] it was -2 % of GpH7-B3/GpL16-k0.

B4: GpH7-B3 variant D265S/GpL16-k0 (antibody, human IgG1)
heavy: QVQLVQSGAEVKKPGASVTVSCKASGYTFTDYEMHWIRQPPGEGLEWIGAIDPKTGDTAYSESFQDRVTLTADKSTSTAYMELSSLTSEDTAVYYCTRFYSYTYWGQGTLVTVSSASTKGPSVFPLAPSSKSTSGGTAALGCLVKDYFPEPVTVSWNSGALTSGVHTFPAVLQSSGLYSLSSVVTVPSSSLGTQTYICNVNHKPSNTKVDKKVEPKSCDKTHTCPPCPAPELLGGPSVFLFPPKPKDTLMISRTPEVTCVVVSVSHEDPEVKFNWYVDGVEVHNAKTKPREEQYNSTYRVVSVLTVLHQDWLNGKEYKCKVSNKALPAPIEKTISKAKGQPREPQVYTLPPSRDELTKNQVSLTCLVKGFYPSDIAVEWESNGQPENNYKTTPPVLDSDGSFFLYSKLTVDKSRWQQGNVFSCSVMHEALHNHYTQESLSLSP
light: B1 light
notes: copies: 2 + 2
For the molecule B4, the relative binding activity in experiment [1] was 20 % of GpH7-B3/GpL16-k0; in experiment [2], 0 % of GpH7-B3/GpL16-k0; in experiment [3] it was 2 % of GpH7-B3/GpL16-k0; in experiment [4], 1 % of GpH7-B3/GpL16-k0; in experiment [5], -2 % of GpH7-B3/GpL16-k0.

B5: GpH7-B3 variant D270G/GpL16-k0 (antibody, human IgG1)
heavy: not shown
light: B1 light
notes: copies: 2 + 2
For the molecule B5, the relative binding activity in experiment [1] is 82 % of GpH7-B3/GpL16-k0; in experiment [2], 3 % of GpH7-B3/GpL16-k0; in experiment [3], 29 % of GpH7-B3/GpL16-k0; in experiment [4] it was 3 % of GpH7-B3/GpL16-k0; in experiment [5] it was 6 % of GpH7-B3/GpL16-k0.

B6: GpH7-B3 variant D270W/GpL16-k0 (antibody, human IgG1)
heavy: not shown
light: B1 light
notes: copies: 2 + 2
Consider B6, for which the relative binding activity is 74 % of GpH7-B3/GpL16-k0 in experiment [1]; -2 % of GpH7-B3/GpL16-k0 in experiment [2]; 38 % of GpH7-B3/GpL16-k0 in experiment [3]; 2 % of GpH7-B3/GpL16-k0 in experiment [4]; 7 % of GpH7-B3/GpL16-k0 in experiment [5].

B7: GpH7-B3 variant D265L/GpL16-k0 (antibody, human IgG1)
heavy: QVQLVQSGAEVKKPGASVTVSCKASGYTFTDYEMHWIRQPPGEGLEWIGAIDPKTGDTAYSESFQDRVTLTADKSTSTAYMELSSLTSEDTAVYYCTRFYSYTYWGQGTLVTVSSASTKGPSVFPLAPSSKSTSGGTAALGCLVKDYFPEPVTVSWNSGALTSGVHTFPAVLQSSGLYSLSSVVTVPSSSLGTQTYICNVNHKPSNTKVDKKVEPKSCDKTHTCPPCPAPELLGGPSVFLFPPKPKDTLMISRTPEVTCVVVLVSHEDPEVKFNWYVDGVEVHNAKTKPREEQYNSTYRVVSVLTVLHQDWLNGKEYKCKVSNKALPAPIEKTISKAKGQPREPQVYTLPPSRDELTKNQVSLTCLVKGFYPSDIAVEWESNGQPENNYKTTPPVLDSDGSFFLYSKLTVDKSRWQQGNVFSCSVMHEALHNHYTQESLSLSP
light: B1 light
notes: copies: 2 + 2
As for B7, the relative binding activity was 7 % of GpH7-B3/GpL16-k0 in experiment [1]; 0 % of GpH7-B3/GpL16-k0 in experiment [2]; 0 % of GpH7-B3/GpL16-k0 in experiment [3]; 0 % of GpH7-B3/GpL16-k0 in experiment [4]; -1 % of GpH7-B3/GpL16-k0 in experiment [5].

B8: GpH7-B3 variant D265Y/GpL16-k0 (antibody, human IgG1)
heavy: not shown
light: B1 light
notes: copies: 2 + 2
With B8, the relative binding activity is 5 % of GpH7-B3/GpL16-k0 in experiment [1]; -1 % of GpH7-B3/GpL16-k0 in experiment [2]; 0 % of GpH7-B3/GpL16-k0 in experiment [3]; -2 % of GpH7-B3/GpL16-k0 in experiment [4]; -1 % of GpH7-B3/GpL16-k0 in experiment [5].

B9: GpH7-B3 variant D265R/GpL16-k0 (antibody, human IgG1)
heavy: not shown
light: B1 light
notes: copies: 2 + 2
As to B9, the relative binding activity in experiment [1] is 5 % of GpH7-B3/GpL16-k0; in experiment [2] it was -1 % of GpH7-B3/GpL16-k0; in experiment [3], 0 % of GpH7-B3/GpL16-k0; in experiment [4], -1 % of GpH7-B3/GpL16-k0; in experiment [5], -1 % of GpH7-B3/GpL16-k0.

B10: GpH7-B3 variant D265G/GpL16-k0 (antibody, human IgG1)
heavy: not shown
light: B1 light
notes: copies: 2 + 2
B10: the relative binding activity in experiment [1] is 11 % of GpH7-B3/GpL16-k0; in experiment [2], 1 % of GpH7-B3/GpL16-k0; in experiment [3], 1 % of GpH7-B3/GpL16-k0; in experiment [4], -1 % of GpH7-B3/GpL16-k0; in experiment [5] it was -1 % of GpH7-B3/GpL16-k0.

B11: GpH7-B3 variant D270P/GpL16-k0 (antibody, human IgG1)
heavy: not shown
light: B1 light
notes: copies: 2 + 2
With B11, the relative binding activity is 64 % of GpH7-B3/GpL16-k0 in experiment [1]; -3 % of GpH7-B3/GpL16-k0 in experiment [2]; 0 % of GpH7-B3/GpL16-k0 in experiment [3]; -1 % of GpH7-B3/GpL16-k0 in experiment [4]; -1 % of GpH7-B3/GpL16-k0 in experiment [5].

B12: GpH7-B3 variant D265N/GpL16-k0 (antibody, human IgG1)
heavy: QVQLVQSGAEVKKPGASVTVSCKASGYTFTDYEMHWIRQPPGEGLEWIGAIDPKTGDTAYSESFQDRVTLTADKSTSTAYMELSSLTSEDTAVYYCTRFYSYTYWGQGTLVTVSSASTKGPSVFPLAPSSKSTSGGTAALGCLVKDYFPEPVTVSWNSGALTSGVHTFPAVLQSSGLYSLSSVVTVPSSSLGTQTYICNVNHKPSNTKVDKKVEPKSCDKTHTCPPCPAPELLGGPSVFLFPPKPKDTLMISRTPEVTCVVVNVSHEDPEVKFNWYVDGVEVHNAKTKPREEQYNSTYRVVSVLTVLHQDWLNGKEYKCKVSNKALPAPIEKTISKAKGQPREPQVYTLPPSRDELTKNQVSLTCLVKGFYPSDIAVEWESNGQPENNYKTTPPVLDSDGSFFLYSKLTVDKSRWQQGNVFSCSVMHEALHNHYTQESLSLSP
light: B1 light
notes: copies: 2 + 2
B12: the relative binding activity is 3 % of GpH7-B3/GpL16-k0 in experiment [1]; -1 % of GpH7-B3/GpL16-k0 in experiment [2]; 0 % of GpH7-B3/GpL16-k0 in experiment [3]; -2 % of GpH7-B3/GpL16-k0 in experiment [4]; -1 % of GpH7-B3/GpL16-k0 in experiment [5].

B13: GpH7-B3 variant D265W/GpL16-k0 (antibody, human IgG1)
heavy: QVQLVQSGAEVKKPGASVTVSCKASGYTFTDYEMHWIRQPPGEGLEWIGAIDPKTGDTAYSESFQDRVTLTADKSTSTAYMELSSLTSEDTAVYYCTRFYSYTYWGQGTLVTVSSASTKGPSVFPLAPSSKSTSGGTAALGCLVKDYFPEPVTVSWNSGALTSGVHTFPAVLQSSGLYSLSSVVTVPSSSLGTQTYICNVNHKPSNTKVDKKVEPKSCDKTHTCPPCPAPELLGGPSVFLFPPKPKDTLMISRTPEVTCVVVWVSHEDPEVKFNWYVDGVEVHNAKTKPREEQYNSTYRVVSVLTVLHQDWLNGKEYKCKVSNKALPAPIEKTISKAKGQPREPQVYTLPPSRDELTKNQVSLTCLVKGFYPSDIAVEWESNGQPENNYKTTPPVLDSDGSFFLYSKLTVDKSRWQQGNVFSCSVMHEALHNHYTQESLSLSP
light: B1 light
notes: copies: 2 + 2
Take B13: the relative binding activity is 3 % of GpH7-B3/GpL16-k0 in experiment [1]; -1 % of GpH7-B3/GpL16-k0 in experiment [2]; 0 % of GpH7-B3/GpL16-k0 in experiment [3]; -2 % of GpH7-B3/GpL16-k0 in experiment [4]; -2 % of GpH7-B3/GpL16-k0 in experiment [5].

B14: GpH7-B3 variant D265Q/GpL16-k0 (antibody, human IgG1)
heavy: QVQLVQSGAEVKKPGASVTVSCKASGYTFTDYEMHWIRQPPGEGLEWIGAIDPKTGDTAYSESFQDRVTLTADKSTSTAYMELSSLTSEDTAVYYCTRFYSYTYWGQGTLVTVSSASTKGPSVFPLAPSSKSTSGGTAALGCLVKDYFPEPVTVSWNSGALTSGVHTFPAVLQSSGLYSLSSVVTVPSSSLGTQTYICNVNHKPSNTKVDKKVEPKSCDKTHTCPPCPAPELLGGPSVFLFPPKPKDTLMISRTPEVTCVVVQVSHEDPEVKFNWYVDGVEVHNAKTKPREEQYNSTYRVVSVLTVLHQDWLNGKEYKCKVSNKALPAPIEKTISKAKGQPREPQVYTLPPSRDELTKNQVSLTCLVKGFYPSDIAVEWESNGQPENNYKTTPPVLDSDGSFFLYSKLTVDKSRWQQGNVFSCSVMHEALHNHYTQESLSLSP
light: B1 light
notes: copies: 2 + 2
As for B14, the relative binding activity in experiment [1] was 67 % of GpH7-B3/GpL16-k0; in experiment [2], 13 % of GpH7-B3/GpL16-k0; in experiment [3] it was 13 % of GpH7-B3/GpL16-k0; in experiment [4] it was 4 % of GpH7-B3/GpL16-k0; in experiment [5], -1 % of GpH7-B3/GpL16-k0.

B15: GpH7-B3 variant D265I/GpL16-k0 (antibody, human IgG1)
heavy: not shown
light: B1 light
notes: copies: 2 + 2
B15: the relative binding activity in experiment [1] is 2 % of GpH7-B3/GpL16-k0; in experiment [2], -1 % of GpH7-B3/GpL16-k0; in experiment [3], 0 % of GpH7-B3/GpL16-k0; in experiment [4] it was -2 % of GpH7-B3/GpL16-k0; in experiment [5] it was -1 % of GpH7-B3/GpL16-k0.

B16: GpH7-B3 variant D265V/GpL16-k0 (antibody, human IgG1)
heavy: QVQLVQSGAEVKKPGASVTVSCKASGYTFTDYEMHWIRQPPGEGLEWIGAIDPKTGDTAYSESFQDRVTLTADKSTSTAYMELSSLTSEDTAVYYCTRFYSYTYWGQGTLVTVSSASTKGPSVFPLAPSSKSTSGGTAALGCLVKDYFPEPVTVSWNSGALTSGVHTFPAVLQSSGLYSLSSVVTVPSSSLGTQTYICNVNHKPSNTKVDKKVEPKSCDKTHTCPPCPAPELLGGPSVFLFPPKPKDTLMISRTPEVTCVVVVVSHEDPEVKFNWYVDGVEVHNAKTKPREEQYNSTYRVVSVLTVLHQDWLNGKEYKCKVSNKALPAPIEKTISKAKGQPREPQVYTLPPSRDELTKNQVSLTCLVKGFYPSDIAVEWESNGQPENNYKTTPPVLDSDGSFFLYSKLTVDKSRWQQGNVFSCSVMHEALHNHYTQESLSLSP
light: B1 light
notes: copies: 2 + 2
In the case of B16, the relative binding activity was 3 % of GpH7-B3/GpL16-k0 in experiment [1]; -1 % of GpH7-B3/GpL16-k0 in experiment [2]; 0 % of GpH7-B3/GpL16-k0 in experiment [3]; -1 % of GpH7-B3/GpL16-k0 in experiment [4]; -1 % of GpH7-B3/GpL16-k0 in experiment [5].

B17: GpH7-B3 variant D265T/GpL16-k0 (antibody, human IgG1)
heavy: not shown
light: B1 light
notes: copies: 2 + 2
Consider B17, for which the relative binding activity in experiment [1] is 48 % of GpH7-B3/GpL16-k0; in experiment [2], 2 % of GpH7-B3/GpL16-k0; in experiment [3], 5 % of GpH7-B3/GpL16-k0; in experiment [4], 1 % of GpH7-B3/GpL16-k0; in experiment [5] it was -2 % of GpH7-B3/GpL16-k0.

B18: GpH7-B3 variant D270K/GpL16-k0 (antibody, human IgG1)
heavy: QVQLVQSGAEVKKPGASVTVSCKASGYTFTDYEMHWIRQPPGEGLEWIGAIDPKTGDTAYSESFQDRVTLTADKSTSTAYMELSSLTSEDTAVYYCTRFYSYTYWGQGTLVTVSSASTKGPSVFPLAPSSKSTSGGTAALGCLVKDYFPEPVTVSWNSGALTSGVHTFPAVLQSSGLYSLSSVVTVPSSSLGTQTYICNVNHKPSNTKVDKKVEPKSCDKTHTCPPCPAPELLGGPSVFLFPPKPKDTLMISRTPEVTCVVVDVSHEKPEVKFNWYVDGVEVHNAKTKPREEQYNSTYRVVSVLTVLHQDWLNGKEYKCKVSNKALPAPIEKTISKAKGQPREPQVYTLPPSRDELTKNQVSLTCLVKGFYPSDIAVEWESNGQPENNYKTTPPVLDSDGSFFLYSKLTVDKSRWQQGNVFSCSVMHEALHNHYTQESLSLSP
light: B1 light
notes: copies: 2 + 2
Turning to B18, the relative binding activity in experiment [1] was 45 % of GpH7-B3/GpL16-k0; in experiment [2] it was -4 % of GpH7-B3/GpL16-k0; in experiment [3], 16 % of GpH7-B3/GpL16-k0; in experiment [4] it was -5 % of GpH7-B3/GpL16-k0; in experiment [5], 5 % of GpH7-B3/GpL16-k0.

B19: GpH7-B3 variant D265H/GpL16-k0 (antibody, human IgG1)
heavy: not shown
light: B1 light
notes: copies: 2 + 2
For the molecule B19, the relative binding activity is 59 % of GpH7-B3/GpL16-k0 in experiment [1]; 26 % of GpH7-B3/GpL16-k0 in experiment [2]; 18 % of GpH7-B3/GpL16-k0 in experiment [3]; 11 % of GpH7-B3/GpL16-k0 in experiment [4]; 0 % of GpH7-B3/GpL16-k0 in experiment [5].

B20: GpH7-B3 variant D265F/GpL16-k0 (antibody, human IgG1)
heavy: not shown
light: B1 light
notes: copies: 2 + 2
In the case of B20, the relative binding activity in experiment [1] is 2 % of GpH7-B3/GpL16-k0; in experiment [2] it was -1 % of GpH7-B3/GpL16-k0; in experiment [3], 0 % of GpH7-B3/GpL16-k0; in experiment [4], -2 % of GpH7-B3/GpL16-k0; in experiment [5], -2 % of GpH7-B3/GpL16-k0.

B21: GpH7-B3 variant D270R/GpL16-k0 (antibody, human IgG1)
heavy: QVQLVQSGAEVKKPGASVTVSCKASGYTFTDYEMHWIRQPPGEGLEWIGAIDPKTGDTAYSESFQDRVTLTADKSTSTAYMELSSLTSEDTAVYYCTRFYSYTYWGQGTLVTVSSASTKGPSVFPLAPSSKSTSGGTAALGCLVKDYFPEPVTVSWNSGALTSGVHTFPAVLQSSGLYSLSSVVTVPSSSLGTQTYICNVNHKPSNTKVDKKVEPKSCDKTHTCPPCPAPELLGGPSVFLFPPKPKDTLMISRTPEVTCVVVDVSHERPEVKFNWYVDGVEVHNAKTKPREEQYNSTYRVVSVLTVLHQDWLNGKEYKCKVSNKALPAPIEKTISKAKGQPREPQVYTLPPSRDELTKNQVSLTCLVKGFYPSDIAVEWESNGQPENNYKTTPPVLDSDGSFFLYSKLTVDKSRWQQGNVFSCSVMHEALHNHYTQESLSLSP
light: B1 light
notes: copies: 2 + 2
Regarding B21, the relative binding activity is 45 % of GpH7-B3/GpL16-k0 in experiment [1]; -5 % of GpH7-B3/GpL16-k0 in experiment [2]; 11 % of GpH7-B3/GpL16-k0 in experiment [3]; -5 % of GpH7-B3/GpL16-k0 in experiment [4]; 2 % of GpH7-B3/GpL16-k0 in experiment [5].

B22: GpH7-B3 variant D265M/GpL16-k0 (antibody, human IgG1)
heavy: not shown
light: B1 light
notes: copies: 2 + 2
For B22, the relative binding activity in experiment [1] was 17 % of GpH7-B3/GpL16-k0; in experiment [2] it was -1 % of GpH7-B3/GpL16-k0; in experiment [3], 0 % of GpH7-B3/GpL16-k0; in experiment [4], -2 % of GpH7-B3/GpL16-k0; in experiment [5], -1 % of GpH7-B3/GpL16-k0.

B23: GpH7-B3 variant E269A/GpL16-k0 (antibody, human IgG1)
heavy: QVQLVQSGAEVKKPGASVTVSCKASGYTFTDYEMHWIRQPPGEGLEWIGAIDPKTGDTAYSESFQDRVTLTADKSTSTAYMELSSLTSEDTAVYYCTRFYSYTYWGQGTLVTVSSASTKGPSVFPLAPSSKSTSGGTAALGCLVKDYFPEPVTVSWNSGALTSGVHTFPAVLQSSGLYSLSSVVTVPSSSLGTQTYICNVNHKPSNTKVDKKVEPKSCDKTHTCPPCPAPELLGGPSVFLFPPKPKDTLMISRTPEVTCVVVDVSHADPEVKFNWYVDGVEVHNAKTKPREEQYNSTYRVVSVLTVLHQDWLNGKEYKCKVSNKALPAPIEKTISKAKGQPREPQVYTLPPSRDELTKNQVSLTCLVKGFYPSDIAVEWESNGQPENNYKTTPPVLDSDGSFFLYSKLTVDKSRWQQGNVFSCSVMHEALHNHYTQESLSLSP
light: B1 light
notes: copies: 2 + 2
Consider B23, for which the relative binding activity in experiment [1] was 93 % of GpH7-B3/GpL16-k0; in experiment [2], 20 % of GpH7-B3/GpL16-k0; in experiment [3] it was 51 % of GpH7-B3/GpL16-k0; in experiment [4] it was 13 % of GpH7-B3/GpL16-k0; in experiment [5], 28 % of GpH7-B3/GpL16-k0.
